{"source": "the DeepSol protein solubility set", "data": [{"assay": "soluble on expression in E. coli; label from the status in PepcDB or PDB records", "values": [{"sequence": "MSLKNLTIKENQPAIYITNLGKYTEGEHMGQWLNVPATKEQFNVVLKNIGVDGVQYEEYFLTDWENIGGISQFSNIERVNNMAKIQIAINEKLYNFFGADQEITYFNDDKYKVMEILNDYAKEQADELTTDEIIENIESMRIFAQDQYNSCIVNFANYLIDELEFINFKAIEKIDQKVVNYFDFEKFGHDKLIELNANSDVIIGTYEVGKLNDTIIIVTLFEGHHHHHH", "soluble on expression in E. coli": "soluble"}, {"sequence": "MSRLPTTPCEQLKLDNQLCFALYSTSLQMTKVYKPLLQALGLTYPQYIAMLVLWERDGLTVGEISARMLTDPGSLTPLLKRLEGEGLITRTRSSEDERVVLLRLTDKGRALQRQAESIPACILESTGLDLPQLVALKDELLALRGNLQAPD", "soluble on expression in E. coli": "not soluble"}, {"sequence": "MSLGNAPLPFDVGGPFELTDQHGARRSQADPQGHGQLLFFGYATCPGICSAAMPMMADAVDRLAEAGIPVTPVMITVDPERDRPGEMNAPLARYHPDFIGLTGSEAELQAAYSAYSVERELAYVDPEYGPVYTHGAFIYLLDAKGEVLSLFPPILSSDRVVELARKYLGSEGEGHHHHHH", "soluble on expression in E. coli": "soluble"}, {"sequence": "QSIEKLYAEFETEPIASASIAQVHKARLHSGEQVAVKVLRPNLLPVIEQDLSLMRFGAGWVERLFADGKRLKPREVVAEFDKYLHDELDLMREAANASQLGRNFQNSDMLIVPKVFYDYC", "soluble on expression in E. coli": "not soluble"}, {"sequence": "MKVWITGAGGMMGSHLAEMLLAAGHDVYATYCRPTIDPSDLQFNGAEVDITDWCSVYDSIATFRPDAVFHLAAQSYPAVSWARPVETLTTNMVGTAIVFEALRRVRPHAKIIVAGSSAEYGFVDPSEVPINERRELRPLHPYGVSKAATDMLAYQYHKSYGMHTVVARIFNCTGPRKVGDALSDFVRRCTWLEHHPEQSAIRVGNLKTKRTIVDVRDLNRALMLMLDKGEAGADYNVGGSIAYEMGDVLKQVIAACKRDDIVPEVDPALLRPTDEKIIYGDCSKLAAITGWQQEICLTQTIADMFDYWRSKSESALMV", "soluble on expression in E. coli": "not soluble"}, {"sequence": "MRTVSTVAELRAALPREGVGFVPTMGYLHRGHLALVERARRENPFVVVSVFVNPLQFGPGEDYHRYPRDLERDRALLQEAGVDLLFAPGVEEMYPEGFATRVQVEGPLTALWEGAVRPGHFQGVATVVARLFLLVQPQRAYFGEKDYQQLLVVRRMVRDLGFPVEVVGVPTVREEDGLALSSRNVYLSPETRKKAPVLYRALLAMREVAGQGGSVAEALRAGEEALRAVPEFRKDYLAIVHPETLLPLSDWVAGARGIVAGRFPEARLIDNLEVYP", "soluble on expression in E. coli": "soluble"}, {"sequence": "MRIPRIYHPISLENQTQCYLSEDAANHVARVLRMTEGEQLELFDGSNHIYPAKIIESNKKSVKVEILGRELADKESHLKIHLGQVISRGERMEFTIQKSVELGVNVITPLWSERCGVKLDAERMDKKIQQWQKIAIAACEQCGRNIVPEIRPLMKLQDWCAENDGALKLNLHPRAHYSIKTLPTIPAGGVRLLIGSEGGLSAQEIAQTEQQGFTEILLGKRVLRTETASLAAISALQICFGDLGEAAAAAALEHHHHHH", "soluble on expression in E. coli": "soluble"}, {"sequence": "PTQSPSEFIAELARCAQPIAQANDLYASVMMAQAIVESGWGASTLSKAPNYNLFGIKGSYNGQSVYMDTWEYLNGKWLVKKEPFRKYPSYMESFQDNAHVLKTTSFQAGVYYYAGAWKSNTSSYRDATAWLTGRYATDPSYNAKLNNVITAYNL", "soluble on expression in E. coli": "not soluble"}, {"sequence": "MLKGHLHSVESLGTVDGPGLRYILFTQGCLLRCLYCHNPDTWKISEPSREVTVDEMVNEILPYKPYFDASGGGVTVSGGEPLLQMPFLEKLFAELKENGVHTCLDTSAGCANDTKAFQRHFEELQKHTDLILLDIKHIDNDKHIRLTGKPNTHILNFARKLSDMKQPVWIRHVLVPGYSDDKDDLIKLGEFINSLDNVEKFEILPYHQLGVHKWKTLGIAYELEDVEAPDDEAVKAAYRYVNFKGKIPVEL", "soluble on expression in E. coli": "not soluble"}, {"sequence": "MGSDKIHHHHHHMQPELSEFLRQHRITEVEAIIPDMAGIARGKIIPRNKFESGESMRLPQAVMVQTVTGDYPEDGTLTGVTDPDMVCVPDPSTICLVPWAVDPTAQVIHDCVHFDGSPVEISPRYVLRRVLDLYKAKGWQPVVAPELEFYLVDMNADPDLPLRPPIGRTGRAETGRQSYSIEAVNEFDPLFEDIYEYCEMQGLDIETLIHEVGAAQMEINFVHGDALSLADQVFLFKRTVREAALRHNMYATFMAKPMEGEPGSAMHIHQSLADVHTGRNLFAEEGGVVSPMFHSYLAGLQKYTPALMPIFAPYINSYRRLSRFMAAPINVQWGYDNRTVGFRIPQSTPVARRIENRIPGVDCNPYLAFAATLAAGYLGLTQQLAPTEPIASDGYDLPYQLPRNLEEGISLMAACTPLAGILGDKFVKAYLALKETEYEAFFRVISSWERRHLLLHV", "soluble on expression in E. coli": "not soluble"}]}]}
